Target: T1, aromatase (rat (endogenous in hypothalamus and …, UniProt P22443 1-508))
T1 sequence (looked up): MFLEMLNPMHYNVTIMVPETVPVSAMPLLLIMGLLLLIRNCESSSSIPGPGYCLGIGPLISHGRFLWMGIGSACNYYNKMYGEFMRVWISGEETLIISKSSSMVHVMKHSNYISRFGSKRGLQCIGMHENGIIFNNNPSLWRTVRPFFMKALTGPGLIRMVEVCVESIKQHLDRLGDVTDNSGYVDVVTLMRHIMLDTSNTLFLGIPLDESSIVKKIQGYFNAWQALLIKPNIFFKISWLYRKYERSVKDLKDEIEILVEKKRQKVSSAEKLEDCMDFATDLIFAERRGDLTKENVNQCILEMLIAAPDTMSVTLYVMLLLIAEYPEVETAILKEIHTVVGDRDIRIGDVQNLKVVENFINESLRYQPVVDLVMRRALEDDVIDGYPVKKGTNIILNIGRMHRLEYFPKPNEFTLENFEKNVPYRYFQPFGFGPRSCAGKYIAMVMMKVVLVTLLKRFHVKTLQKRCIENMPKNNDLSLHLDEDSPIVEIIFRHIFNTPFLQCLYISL
Assay: co-IP

fold more co-IPed with hypothalamic than with spinal aromatase: 5.4 fold
B1: protein phosphatase 5 (PP5) (enzyme, UniProt P53042 1-499, looked up)
chain: MAMAEGERTECAEPPRDEPPAEGTLKRAEELKTQANDYFKAKDYENAIKFYSQAIELNPSNAIYYGNRSLAYLRTECYGYALGDATRAIELDKKYIKGYYRRAASNMALGKFRAALRDYETVVKVKPNDKDAKMKYQECSKIVKQKAFERAIAGDEHRRSVVDSLDIESMTIEDEYSGPKLEDGKVTITFMKDLMQWYKDQKKLHRKCAYQILVQVKEVLCKLSTLVETTLKETEKITVCGDTHGQFYDLLNIFELNGLPSETNPYIFNGDFVDRGSFSVEVILTLFGFKLLYPDHFHLLRGNHETDNMNQIYGFEGEVKAKYTAQMYELFSEVFEWLPLAQCINGKVLIMHGGLFSEDGVTLDDIRKIERNRQPPDSGPMCDLLWSDPQPQNGRSVSKRGVSCQFGPDVTKAFLEENQLDYIIRSHEVKAEGYEVAHGGRCVTVFSAPNYCDQMGNKASYIHLQGSDLRPQFHQFTAVPHPNVKPMAYANTLLQLGMM
